The values that follow come from the domain aggregation screens of Martell et al. (2025).

A value given as a limit tells only on which side of the number the result lay.

The nature of the data set: soluble fraction after stress (log2 fold change); higher = more stays soluble; pooled small domains, quantitative proteomics. Particulars: stress: pH 4. In a few lines:
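High-throughput quantitative proteomics was run on pooled custom libraries of small protein domains following pH 4 stress. Fold changes are on a log2 scale; higher values mean more of a domain remained soluble. The fold change in soluble amount is taken as a measure of aggregation propensity.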
As to “HMAFAVWVKLVAIGPNYAQLEIEQGTQRNVRTLRPGDDAPEGVRLLSLTPTHAEVQANGIARKLALGQGMA”, the “soluble fraction (log2)” value was -0.0174.
Take “HMAFDESLVRSIQELLSELGYSPGKIDGLLGAKTVAAIKAFELEINKDQLTGEPSEELLIALQLAIRSSKM”: the “soluble fraction (log2)” value is -0.968.
“HMAFDGIVLKNITNALKELINGKINKIQQSSKDNLTLSIYNQKSYNLYIDISANNYRVNLTTHSE”: the “soluble fraction (log2)” value came out at 0.22.
With “HMAFDYETYQLTSREFSIIELVADGRSNREIAEALYLGEGTVRNYLSSILEKLELRDRTQLAVFFYQHL” the figure was -2.34; with “HMAFIEIMTEGDADGRGFQYPIPTYSITRDFDWSETENNKLLFEMTAKYGTPYFSNYINSDMEPSDV”, -0.913; with “HMAGAITEREVEVLELLSRGLGNKEIAKELFVSEATVKSHLSHIYTKLAVDTRAGAVAAAIERRIIRAWR”, -0.388.
Take “HMAGASQAVKAQLRLREMILAGELPGGARIAELTLVEKLGVSRTPIRAALMRLEQEGLLHRLPGGGYAVRT”: the “soluble fraction (log2)” value is -0.41.
Regarding “HMAGDDEIEKIAQDILAAWPDKVAAYQAGNKGLMGLFMGELMKKSQGKANPKVASGIIQKLLD”, the “soluble fraction (log2)” value was -0.455.
Turning to “HMAGEDPANLELMRLMDEEYMEHPTKGVLGMVDFLRALGILTGPKRVRRLLRKMGIMAIYPK”, the “soluble fraction (log2)” value is -0.396.
Consider “HMAGGVFELTGKVTADAKAGDLVYVKAATGAGTKPVVTTVKTGADVIIGWLKEPVSSASVDQKMQVVLA”, for which the “soluble fraction (log2)” value was 0.22.
For “HMAGITLHAEEGRVRIRSQSEGLVKVLDAMGREQASWPLRSKGWWFFLTEGWAPGTYFVKTESGETQRFLV”, the “soluble fraction (log2)” value is 0.215.
With “HMAGNNTATKEIAELLIAKGADVNAMNLSPPGREIGGMTPLDMAILGNRNEIADLLRKHGGRTQKELKAE” the figure was -0.104; with “HMAGPGAEVVDRLIAVLTGERPATAADQVLLSILKGLGIGGVVLPSERTGLGWSGLYQRVKEITDMN”, -1.21.
Regarding “HMAGPRRRLLDAAIDRAAERGLGDLSLRALAEELGTSHRMLSHHFGSKDGLWLAIVEEVERRQ”, the “soluble fraction (log2)” value was -0.661.
Consider “HMAGSTAASKHALALLNTARHSIRDGNLTSAAAEIKQALATSQEQIVITEARSLMTAMEARATTRRATVLQ”, for which the “soluble fraction (log2)” value was -0.179.
The value for “HMAGTAMRATTAVNVRSGAGTNYSRIGLLQAGEQIQALSSKNGWTQVSYKGRTGYVASAYLASL” was 0.402; that for “HMAGTGKVNTGVANVRSGPGTNYEISGKIYADTEVSILETSNGWYKIKFGNLTGWMSGTVLDIK” was -0.0124.
The value for “HMAGTPAVVKWFNPTKGFGFVTPREAGSDALLHASVLAKQGKRWLQEGTVVEVVLEEGPKGLVVSEVLTIE” was -0.469; that for “HMAGWMPGGTNPAEPGRFAVLMDVDDSDAYKHMFLRWNGHAWEFERTRVLVKMEPSWWMRLPDDPEKP” was -0.27.
With “HMAHKRVDGTIVTPLTADTIVLRTGTHGEQPFEIRDTTRHKLESLQKGDMVILLIDTDNKVIDVAIPP” the figure was -0.263; with “HMAHYYVRNGYYYYQRRIPLDLRKFYSGANIKASLKTKDPAIAALFVAKFDRQYDAEFAQRRLNPD”, -0.277; with “HMAIELIDLIKNPETAPFSKLKYLKWMPEAEVTGFFNNLFQLNVTARETGDWSTVDKFLEDEGDRIAAQVA”, -0.215.
With “HMAIEMSTITKRVTSTGEIRYRALLQIRREDVNYTESRTFSKKSLAEAWLKKREVELEANPELLHQ”, the “soluble fraction (log2)” value is at least 0.43.
With “HMAIGERIRFLRTLRRMTQKELGLAAGFPEKNASIRMAQYENGTRTPKAELTAVLAEILKVSPQALTV” the figure was 0.173.
With “HMAIKNKNEQLEAIIKFADLRGEFKTADIEELLSIKSSRARLLISELVKIGKLESIGSNRNRRYHIK”, the “soluble fraction (log2)” value is -0.302.
As for “HMAIKTGAVTGHGVKVRKGPSTNEKAIHDVLYGSRLQILEEKNGFLKAKFEDGTTGWISKQFVTTTDKNLL”, the “soluble fraction (log2)” value was -0.0244.
The value for “HMAIKWTPEIEDEVSNKLKEKWSPEQISAWLKKNKSIMISHQRIYQFIVEDKMSGGNLYRNLRQ” was 0.172; that for “HMAIPTTDSDKATDAQIKQIKLLGDIHPNLKLDAWLERNHVTWETLTREQAGNMMKAIKNKYGD” was 0.132; that for “HMAISEAERARLQTKIKERNKMARWINTNLNPTSKIRNINPAETVRKLMTQDDADSLERSLDAFMEA” was 0.0822.
In the case of “HMAIVNVEVPSLVGKTEQEARNLLTEAGLKVNVVNDEDESKNDGVVLRQSKDAGTEVQEGTTITITVNKVS”, the “soluble fraction (log2)” value is -0.467.
For the sequence “HMAKDDFMSFVKAVWPEFIEGAHHRVIAQKFNDLATGKITRLIVNMPPRHTKSEFASYLLPAW”, the “soluble fraction (log2)” value is -0.144.
With “HMAKDEYGLTSNQRAFADEYIRNKGNATQAYLFAYPHIKKENTAAVNASRLLRNAKVSKYIADRTKEIL” the figure was -0.146.
The value for “HMAKIDSRKALIDQLTTTFTRAQLEELITKNELSTDARFFLSQWNAKGWIRKTAKNVYEKLR” was 0.0107.
For “HMAKLTPDQQELRAIRIELQMSQPDFADAININVPRLSSYEYGRTAGVPTSIMEAARELKRSMSR”, the “soluble fraction (log2)” value is -0.324.
With “HMAKRDEIEAELPRFVATITQELAASRDVLSMIEHYKQNSGPVFSAELDVLTADMRSGSYEAALTRFEARF” the figure was -0.0581; with “HMAKRKYKSFKDVAEFAQKLGIKSSTEWWAYVRGHEIPSDIPKDPSTYYKKEWTTWGDFLGTGYVSSA”, at least 0.43; with “HMAKRTVPSVAEAIDNFRRQHRRMPSYAEMLPLLGVRSKSVVHFWINKLLENGLLEKDDKGYLTPGS”, -0.241.
The value for “HMAKSPYDVLGLKEDAPFDEVKKRYRELVKKYHPDILMGRGESEEMIEKSTRKLQEINEAYETIKQRA” was -0.0402; that for “HMAKVDIPHEMVDQRIDEIVEEIKMNLESQNMSLDDYLKRMNQTEAQLRANYEATAAEQVRQGLV” was -0.982; that for “HMALDSQEVGYNIEARGARPVVAQLGKAGQFSAVENSIRLGDDNWIALAPKLAGGGNAGFTAGIKSALS” was -0.293.
Regarding “HMALIGSNLRHLRNERKLSQQELADLIRVGRTTIANIEANLANPGHKTLLEIVKVFDITIDELLHTDLTK”, the “soluble fraction (log2)” value is -0.684.
For “HMALKPKITIEELIRILNESKDLSDSETAKILNKDYTTAKYGKEFTSINVQGARYALDIATNTS”, the “soluble fraction (log2)” value was -0.323.
As to “HMALLSNEDIMFNLEFNRDLAVASNDGVSRDEFLRNKYGISEEEYNMLRARYGDGLNAARIKEYVGQRD”, the “soluble fraction (log2)” value was -0.36.
The value for “HMALLSNTVDELHAGMRLDSYLFESGLYPSRSFAVKQIEAGKVFLNGDAVTKKTLVSNGDFIVYELEE” was -0.506; that for “HMALMLGGLIVYLNTTAPRDDIDLIELSKDTKAMAAFGNKLASPDYNGKQFALDWHELSRDEIMSKYFS” was -1.82; that for “HMALPDWLDPEAWAAWKRHRKAIRKPLTEDAVALSIRELAKLRDEGYGPTSVIENAILKGWQGLYPPK” was 0.143.
Regarding “HMALPGESVYVSILQSGSNRDQGVGYLDDGTMVVVDGAIKDIGKSIEVVINKSHQTVAGKMLFAKKVA”, the “soluble fraction (log2)” value is -0.144.
As for “HMALPQPDDDRQDTKKRILDMAEDLLLTRGFNAFSYQHISSELGMKNAAIHYHYPKKNDLGVAVIQRYRRR”, the “soluble fraction (log2)” value was -0.178.
The value for “HMALQDKYAELLTAANTMGVTNLAVAEKDGTLHVSGTAKSTADYDSLWALYDKIDPNMASGDLMMNI” was -0.0324; that for “HMALQDKYKELTDAATAAGVTDLQVREQDNVLYIDGTAPSGAVKDQLWAIYDKIDPNFVSGDLVLNVNVD” was -0.49.
